Assay results published in US20210380703A1 (RIGEL PHARMACEUTICALS, published 2021).
Where a chain is given by its changes, count along the chain named. Each block holds one binder with its values, some of them ahead of it.

How the values were obtained:
[1] = target: T1, biotinylated goat anti-human kappa light chain; test: ELISA, positive control
T1 construct: positive control of the ELISA
Summary of the method: (§1)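 ELISA measured binding of ACVR2A-specific monoclonal antibodies to human and mouse ACVR2A. Biotinylated goat anti-human kappa light chain served as positive control and human Fc as negative control.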

mouse ACVR2A = mouse ACVR2A (mouse, UniProt P27038 20-135, limits assumed); test: ELISA
Sequence of mouse ACVR2A (P27038 20-135 limits assumed): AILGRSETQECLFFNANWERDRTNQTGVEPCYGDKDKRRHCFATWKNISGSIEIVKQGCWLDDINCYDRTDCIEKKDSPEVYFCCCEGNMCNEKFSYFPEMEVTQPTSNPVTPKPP
Summary of the method: as §1

human ACVR2A = target: T2, human ACVR2A (human, UniProt P27037 20-135, limits assumed); test: ELISA
T2 construct: also called activin receptor, type II A
T2 sequence (P27037 20-135 limits assumed): as the sequence (P27038 20-135 limits assumed) above, with R20K, I73V counted along it
Summary of the method: as §1
Further: test concentration or dose not given here.

B2: 369_H03 (antibody, V domains shown)
VH: EVQLLESGGGLVQPGGSLRLSCAASGFTFSSYSMHWVRQAPGKGLEWVASINYNSGYKSYADSVKGRFTISRDNSKNTLYLQMNSLRAEDTAVYYCARAANWHDTALDYWGQGTLVTVSS
VL: DIQMTQSPSSLSASVGDRVTITCRASQSIVSYLNWYQQKPGKAPKLLIYATTSRASGVPSRFSGSGSGTDFTLTISSLQPEDFATYYCQQSYDTPLTFGGGTKVEIK
notes: Group I
optical density [1]: 3.47 OD
optical density (mouse ACVR2A): 3.08 OD
optical density (human ACVR2A): 2.83 OD

B3: 369_G10 (antibody, V domains shown)
VH: B2 VH with S33G, S55G, K58T
VL: B2 VL with V30L, L47V, T51A, T94S
notes: Group I
optical density [1]: 3.49 OD
optical density (mouse ACVR2A): 3.29 OD
optical density (human ACVR2A): 3.37 OD

B4: 371_D05 (antibody, V domains shown)
VH: B2 VH with S30D, S31D, S33G, A49S, S50G, S55G, K58T, N101T, A106H
VL: B2 VL with V30L, S31T, T51A, T52S, R54L, A55Q, T94S
notes: Group II
optical density [1]: 3.44 OD
optical density (mouse ACVR2A): 3.11 OD
optical density (human ACVR2A): 2.72 OD

B11: 371_A04 (antibody, V domains shown)
VH: B2 VH with S30D, S33G, H35N, A49S, K58T, S59G
VL: B2 VL with V30L, S31T, T51V
notes: Group I
optical density [1]: 3.53 OD
optical density (mouse ACVR2A): 1.17 OD
optical density (human ACVR2A): 1.01 OD

B12: 370_G04 (antibody, V domains shown)
VH: B2 VH with S33G, A49S, S50G, S55G, K58T, S59G
VL: B2 VL with V30L, L33V, T51A, D93S
notes: Group I
optical density [1]: 3.51 OD
optical density (mouse ACVR2A): 2.12 OD
optical density (human ACVR2A): 1.82 OD

B13: 371_A09 (antibody, V domains shown)
VH: B2 VH with S33G, H35N, A49S, S50G, S55G
VL: B2 VL with S31T, L33V, L47V, T51A, T94S
notes: Group I
optical density [1]: 3.62 OD
optical density (mouse ACVR2A): 2 OD
optical density (human ACVR2A): 1.85 OD

B14: 370_B07 (antibody, V domains shown)
VH: B2 VH with S33G, S50N, N101T, A106H
VL: B2 VL with V30L, S31T, L33V, T51A, A55H, D93S, T94S
notes: Group II
optical density [1]: 3.48 OD
optical density (mouse ACVR2A): 2.2 OD
optical density (human ACVR2A): 1.91 OD

B16: 371_B11 (antibody, V domains shown)
VH: B2 VH with K58T, N101T, A106H
VL: B2 VL with V30L, S31T, T51A, D93E, T94L
notes: Group II
optical density [1]: 3.59 OD
optical density (mouse ACVR2A): 3.26 OD
optical density (human ACVR2A): 3.18 OD

B18: 370_D06 (antibody, V domains shown)
VH: B2 VH with S33G, H35N, S55G, K58T, A106H
VL: B2 VL with V30I, L47V, T51A, R54L, D93S, T94S
notes: Group I
optical density [1]: 3.48 OD
optical density (mouse ACVR2A): 2.66 OD
optical density (human ACVR2A): 2.26 OD

B19: 371_H02 (antibody, V domains shown)
VH: B2 VH with S30D, S31D, H35N, A49S, S50G, S55G, A106H
VL: B2 VL with V30I, L47V, T51A, R54L, D93E, T94N
notes: Group I
optical density [1]: 3.62 OD
optical density (mouse ACVR2A): 2.03 OD
optical density (human ACVR2A): 1.88 OD

B20: 369_C11 (antibody, V domains shown)
VH: B2 VH with S31D, S33G, S50G, S55G, K58T, S59G, N101T, A106H
VL: B2 VL with V30L, L47V, T51A
notes: Group II
optical density [1]: 3.48 OD
optical density (mouse ACVR2A): 2.91 OD
optical density (human ACVR2A): 2.8 OD

B21: 371_B02 (antibody, V domains shown)
VH: B2 VH with S30D, S33G, H35N, A49S, S50N, S55G, K58T, N101T, A106H
VL: B2 VL with V30L, S31T, L33V, L47V, T51A, R54L, D93N, T94N
notes: Group II
optical density [1]: 3.59 OD
optical density (mouse ACVR2A): 2.28 OD
optical density (human ACVR2A): 2 OD

B22: 369_E03 (antibody, V domains shown)
VH: B2 VH with S33G, S50G, S55G, K58T, N101T, A106H
VL: B2 VL with V30L, L33V, T51A, R54L, D93E, T94N
notes: Group II
optical density [1]: 3.37 OD
optical density (mouse ACVR2A): 3.36 OD
optical density (human ACVR2A): 3.15 OD

B23: 370_H05 (antibody, V domains shown)
VH: B2 VH with S33G, A49S, S50N, S55G, K58T, N101T, A106H
VL: B2 VL with V30L, T51A, T52S, R54L, A55Q, Y92D, D93S, T94L
notes: Group II
optical density [1]: 3.61 OD
optical density (mouse ACVR2A): 3.14 OD
optical density (human ACVR2A): 2.94 OD

B24: 370_E12 (antibody, V domains shown)
VH: B2 VH with S30D, S33G, S50G, S55G, K58T, N101T, A106H
VL: B2 VL with V30L, L33V, T51A, D93E, T94N
notes: Group II
optical density [1]: 3.66 OD
optical density (mouse ACVR2A): 3.44 OD
optical density (human ACVR2A): 3.39 OD

Continued, values first:

optical density [1]: 3.29 OD
optical density (mouse ACVR2A): 2.88 OD
optical density (human ACVR2A): 2.75 OD
B1: 369_B08 (antibody, V domains shown)
VH: B2 VH with S30D, S33G, A49S, S55G, K58T, N101T, A106H
VL: B2 VL with V30L, L33V, T51A, D93E, T94S
notes: Group II

optical density [1]: 3.17 OD
optical density (mouse ACVR2A): 3.06 OD
optical density (human ACVR2A): 2.75 OD
B5: 369_C06 (antibody, V domains shown)
VH: B2 VH with A49S, S55G, N101T, A106H
VL: B2 VL with V30L, L33V, T51A, T94S
notes: Group II

optical density [1]: 3.41 OD
optical density (mouse ACVR2A): 3.05 OD
optical density (human ACVR2A): 2.88 OD
B6: 369_C09 (antibody, V domains shown)
VH: B2 VH with S33G, A49S, S55G, K58T, S59G, N101T, A106H
VL: B2 VL with L47V, T51A, A55H, T94L
notes: Group II

optical density [1]: 3.37 OD
optical density (mouse ACVR2A): 3.09 OD
optical density (human ACVR2A): 2.88 OD
B7: 370_B06 (antibody, V domains shown)
VH: B2 VH with S33G, S50G, S55G, K58T, N101T, A106H
VL: B2 VL with L33V, L47V, T51A, D93E
notes: Group II

optical density [1]: 3.65 OD
optical density (mouse ACVR2A): 3.24 OD
optical density (human ACVR2A): 2.94 OD
B8: 370_H08 (antibody, V domains shown)
VH: B2 VH with S33G, S55G, K58T, A106H
VL: B2 VL with V30L, L33V, T51A, A55H, D93S, T94L
notes: Group I

optical density [1]: 3.66 OD
optical density (mouse ACVR2A): 2.88 OD
optical density (human ACVR2A): 2.92 OD
B9: 371_C02 (antibody, V domains shown)
VH: B2 VH with S30D, S33G, S50G, K58T, S59G, N101T, A106H
VL: B2 VL with V30L, S31T, L33V, T51A, T52S, R54L, A55Q
notes: Group II

optical density [1]: 3.75 OD
optical density (mouse ACVR2A): 3.47 OD
optical density (human ACVR2A): 3.38 OD
B10: 370_B01 (antibody, V domains shown)
VH: B2 VH with S30D, S31D, S33G, A49S, S50G, S55G
VL: B2 VL with V30L, L33V, A50V, T51A, T52S, D93S, T94L
notes: Group I

optical density [1]: 3.6 OD
optical density (mouse ACVR2A): 3.24 OD
optical density (human ACVR2A): 3.05 OD
B15: 371_A05 (antibody, V domains shown)
VH: B2 VH with S33G, A49S, S50N, S55G, N101T, A106H
VL: B2 VL with V30L, S31T, T51A, Y92D, D93N, T94L
notes: Group II

optical density [1]: 3.34 OD
optical density (mouse ACVR2A): 2.89 OD
optical density (human ACVR2A): 2.78 OD
B17: 371_F07 (antibody, V domains shown)
VH: B2 VH with S33G, S50G, S55G, K58T, N101T, A106H
VL: B2 VL with V30L, S31T, T51A, R54L, Y92D, D93S, T94N
notes: Group II

optical density [1]: 3.41 OD
optical density (mouse ACVR2A): 2.99 OD
optical density (human ACVR2A): 2.8 OD
B25: 371_G07 (antibody, V domains shown)
VH: B2 VH with S31D, S33G, S50G, S55G, K58T, N101T, A106H
VL: B2 VL with L33V, L47V, T51A, D93S, T94L
notes: Group II

optical density [1]: 3.44 OD
optical density (mouse ACVR2A): 2 OD
optical density (human ACVR2A): 1.89 OD
B26: 371_D12 (antibody, V domains shown)
VH: B2 VH with S30D, S33G, H35N, A49S, S50G, S55G
VL: B2 VL with V30L, T51A, D93E, T94L
notes: Group I
